Data from the PETadex activity labels (doi:10.1073/pnas.2006753117).

Tests used:
MHET = experiment: Proxy for plastic degradation [kcat] (s⁻¹); settings: pH 7.5
PET = experiment: Proxy for plastic degradation [Released monomer concentration (HPLC/LC-MS) (BHET+MHET+TPA)]; settings: pH 7.5; part of the chain shown

Protein | Proxy for plastic degradation (MHET) | Proxy for plastic degradation (MHET; part of the chain shown) | Proxy for plastic degradation (PET)
unnamed (protein) MKSSIPISVGMLATALISGCGSVPDNTSNEPTVPLASKELCEGIASGATKVNWPNQNTVVKASVWHAVTPATANAPELPEHCEVTGSINQRTGVDGYPYEIKMRLRMPADWNGRFFMEGGGGTNGSLSAALGSLGGGQTSNALSRRFATVSTDGGHDNAVNNNPAALGSVAFGMDPQARLDHGYNSYDQVTLAGKSAVSTFYGRGPDKSYFIGCSEGGREGMMFSQRFPAHYDGIVAGAPGYQLPKAGISGAWTTQSLAPAAVGVDPDGAPLVNKSFSDPDLYLLTQAILGSCDALDGLADGIVGNYSACQSLFDPSTALNPATGQPLRCTGAKTDDCLSPVQVDAIKRAMSGPVDTAGTALYNKWPWDTGMSGLNGTTYFQGWRSWWLGSYDSSTNNAQRVNGSSARSWLVDFATPPEPVPLNQVATRMMNFDFDVDPPKIFATSGLFTQPSMQWHGATSTDLNAFRSRGGKLMLYHGMADAAFSALDTIAYYERLSTAMPSVSDFSRLFLVPGMGHCSGGPGTDRFDMLTPLVAWVENGTAPARVEASSSTPGYFGVSARSRPLCPHPQIARYTGSGDINEATNFVCGNP | 3.8 | – | –
unnamed (protein) MQTTVTTMLLASVALAACAGGGSTPLPLPQQQPPQQEPPPPPVPLASRAACEALKDGNGDMVWPNAATVVEVAAWRDAAPATASAAALPEHCEVSGAIAKRTGIDGYPYEIKFRLRMPAEWNGRFFMEGGSGTNGSLSAATGSIGGGQIASALSRNFATIATDGGHDNAVNDNPDALGTVAFGLDPQARLDMGYNSYDQVTQAGKAAVARFYGRAADKSYFIGCSEGGREGMMLSQRFPSHYDGIVAGAPGYQLPKAGISGAWTTQSLAPAAVGLDAQGVPLINKSFSDADLHLLSQAILGTCDALDGLADGIVDNYRACQAAFDPATAANPANGQALQCVGAKTADCLSPVQVTAIKRAMAGPVNSAGTPLYNRWAWDAGMSGLSGTTYNQGWRSWWLGSFNSSANNAQRVSGFSARSWLVDFATPPEPMPMTQVAARMMKFDFDIDPLKIWATSGQFTQSSMDWHGATSTDLAAFRDRGGKMILYHGMSDAAFSALDTADYYERLGAAMPGAAGFARLFLVPGMNHCSGGPGTDRFDMLTPLVAWVERGEAPDQISAWSGTPGYFGVAARTRPLCPYPQIARYKGSGDINTEANFACAAPP | – | 27.6 | 0 mM
unnamed (protein) MNFPRASRLMQAAVLGGLMAVSAAATAQTNPYARGPNPTAASLEASAGPFTVRSFTVSRPSGYGAGTVYYPTNAGGTVGAIAIVPGYTARQSSIKWWGPRLASHGFVVITIDTNSTLDQPSSRSSQQMAALRQVASLNGTSSSPIYGKVDTARMGVMGCSMGGGGSLISAANNPSLKAAAPQAPWDSSTNFSSVTVPTLIFACENDSIAPVNSSALPIYDSMSRNAKQFLEINGGSHCCANSGNSNQALIGKKGVAWMKRFMDNDTRYSTFACENPNSTRVSDFRTANCS | 0.03 | – | –
unnamed (protein) MNFPRASRLMQAAVLGGLMAVSAAATAQTNPYARGPNPTAASLEASAGPFTVRSFTVSRPSGYGAGTVYYPTNAGGTVGAIAIVPGYTARQSSIKWWGPRLASHGFVVITIDTNSTLDQPSSRSSQQMAALRQVASLNGTSSSPIYGKVDTARMGVMGWSMGGGGSLISAANNPSLKAAAPQAPWDSSTNFSSVTVPTLIFACENDSIAPVNSSALPIYDSMSRNAKQFLEINGGSHSCANSGNSNQALIGKKGVAWMKRFMDNDTRYSTFACENPNSTRVSDFRTANCS | – | 0 | –
